These results are taken from US20210388105A1 (ELPISCIENCE SUZHOU BIOPHARMA, published 2021).

Several values for one entry are separate records, joined by “and”; a condition that tells them apart may be missing. Identical values can stand only once. Like-named read-outs stand apart in the source and are kept apart here.

The target of test [1] is T1, human CD39 (full length, on cells) (human, UniProt P49961 1-510).
T1 construct: Recombinant on CHOK1-hCD39 cells or natural on SK-MEL-28, SK-MEL-5 and MOLP-8 cells; the cell line is named under assay; also called hCD39; ENTPD1
T1 sequence: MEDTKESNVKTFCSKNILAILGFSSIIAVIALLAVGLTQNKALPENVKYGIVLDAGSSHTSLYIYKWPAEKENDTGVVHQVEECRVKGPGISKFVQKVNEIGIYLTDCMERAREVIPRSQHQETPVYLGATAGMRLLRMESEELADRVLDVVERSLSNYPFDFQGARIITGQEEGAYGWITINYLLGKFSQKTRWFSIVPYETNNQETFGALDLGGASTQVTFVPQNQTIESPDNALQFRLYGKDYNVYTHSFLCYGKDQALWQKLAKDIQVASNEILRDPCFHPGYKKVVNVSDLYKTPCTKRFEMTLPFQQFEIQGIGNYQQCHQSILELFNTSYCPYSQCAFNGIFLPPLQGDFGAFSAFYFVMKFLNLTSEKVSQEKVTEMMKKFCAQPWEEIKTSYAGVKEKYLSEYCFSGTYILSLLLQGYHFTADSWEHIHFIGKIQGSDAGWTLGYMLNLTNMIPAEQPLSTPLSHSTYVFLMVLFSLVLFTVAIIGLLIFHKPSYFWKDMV
The experiment in a line: FACS, MOLP-8 cells. How it is done: (§1) Similarly, human CD39 expressing cells SK-MEL-5, SK-MEL-28 or MOLP-8, were incubated with a gradient concentration of anti-CD39 antibodies for 30 minutes at 4° C. Cells were washed 3 times using FACS buffer and next incubated with fluorescence labelled secondary antibody (goat-anti-mouse IgG or goat anti-human IgG) for 30 minutes at 4° C. Cells were washed 3 times and then re-suspended in FACS buffer and analyzed by flow cytometry analysis on BD Celesta. Data plotted and analyzed using GraphPad Prism 8.02.
(§2) The binding affinity of the humanized antibodies for c14 was determined by FACS using MOLP-8 cells expressing human CD39, using similar methods as described in Example 3.2.

Test [2] has as its target T1, human CD39 (full length, on cells). Nature of the test: FACS, MOLP-8 cells. How it is done: as §1
(§3) The binding affinity of the humanized antibodies for c23 was determined by FACS, using similar methods as described in Example 3.2. The c23 humanized antibody clones showing good binding affinity are listed in below Table 19 and Table 20, and also shown in FIGS. 7A, 7B and FIG. 8. EC₅₀ is the concentration of the indicated antibodies to reach 50% of the signal in this assay.
The source holds these as a separate data set.

Test [3] has the same target. The experiment in a line: cell-based or functional assay.
The target is the same in test [4]. The experiment in a line: FACS on MOLP-8 cells, MFI. How it is done:
as §1, §2

For test [5] the target is unchanged. Nature of the test: FACS, MOLP-8 cells. How it is done:
as §1, §3
This is another data set of the same source.

B1: c14 (antibody, V domains shown)
VH: EVKLEESGGGLVQPGGSMKLSCVASGFTFSKYWMNWVRQSPEKGLEWVAEIRLKSNKYGTHYAESVKGRFTISRDDSKNNVYLQMNNLRPEDTGIYYCTTQLDLYWFFDVWGAGTTVTVSS
VL: DIVMTQSPAILSVTPGDRVSLSCRASQSISDYLHWYQQKSHESPRLLIKYASQSISGIPSRFSGSGSGSNFTLSINSVEPEDVGVYFCQNGHSLPLTFGAGTKLELR
notes: variable regions of mAb14 on human IgG constant regions; also called chimeric antibody c14
For the molecule B1, the 50% effective concentration (EC50) in test [1] is 17.5 nM. In other words, the double-digit nanomolar range.

B2: hu23.203 (antibody, V domains shown)
VH: QVQLVQSGAEVKKPGASVKVSCKASGYTLKDTFLHWVRQAPGQRLEWMGRIDPANGNIKYDPKFQGRVTLTADTSSNTAYMELSSLRSEDTAVYYCANSPYYYGSGYRIFDVWGQGTLVTVSS
VL: EIVLTQSPATLTLSPGERATLSCSAFSSVNYMHWYQQKPGQAPRLLIYTTSNLASGIPARFSGSGSGTDYTLTISSLEPEDFAVYYCQQRSTYPFTFGQGTKLEIK
notes: humanized c23 by yeast display
B2 yielded a concentration giving a half-maximal response (EC50) in test [2] of 0.429 nM. For the same molecule, the “ATPase inhibition IC50 on SK-MEL-28 cells” value (“ATPase inhibition IC50” below) in test [3] amounted to 0.32 nM.

B3: hu23.207 (antibody, V domains shown)
VH: EVQLVQSGAEVKKPGASVKVSCKASGYTLKDTFLHWVRQAPGQRLEWMGKIDPANGNIKYDPKFQGRVTLTADTSSNTAYMELSSLRSEDTAVYYCANSPYYYGSGYRIFDVWGQGTLVTVSS
VL: EIVLTQSPATLSLSPGERATLSCSAFSSVNYMHWYQQKPGQSPRLLIYTTSNLASGIPARFSGSGSGTDYTLTISSLEPEDFAVYYCQQRSTYPFTFGQGTKLEIK
notes: as for B2
In test [2], B3 gave an EC50 of 2.25 nM.

B4: hu23.211 (antibody, V domains shown)
VH: EVQLVQSGAEVKKPGASVKVSCKASGYTLKDTFLHWVRQAPGQRLEWMGRIDPANGNIKYDPKFQGRVTITADTSSNTAYMELSSLRSEDTAVYYCANSPYYYGSGYRIFDVWGQGTLVTVSS
VL: EIVLTQSPATLSLSPGERATLSCSAFSSVNYMHWYQQKPGQAPRLLIYTTSNLASGIPARFSGSGSGTDYTLTISSLEPEDFAVYYCQQRSTYPFTFGQGTKLEIK
notes: as for B2
The molecule B4 came in with a concentration for a half-maximal effect (EC50) in test [2] of 1.56 nM. Also, in test [3], the “ATPase inhibition IC50” value was 0.386 nM.

B5: hu14.H2L2 (antibody, V domains shown)
VH: EVQLVESGGGLVKPGGSLRLSCAASGFTFSKYWMNWVRQSPGKGLEWVGEIRLKSNKYGTHYAESVKGRFTISRDDSKNTLYLQMNSLKTEDTAVYYCTTQLDLYWFFDVWGQGTTVTVSS
VL: EIVLTQSPATLSLSPGERATLSCRASQSISDYLHWYQQKPGQSPRLLIYYASQSISGIPARFSGSGSGTDFTLTISSLEPEDFAVYFCQNGHSLPLTFGGGTKLEIK
notes: humanized c14
As to B5, in test [1], the EC50 amounted to 6.91 nM.

B6: hu14.H3L3 (antibody, V domains shown)
VH: EVQLVESGGGLVKPGGSLRLSCAASGFTFSKYWMNWVRQSPGKGLEWVAEIRLKSNKYGTHYAESVKGRFTISRDDSKNTVYLQMNSLKTEDTAVYYCTTQLDLYWFFDVWGQGTTVTVSS
VL: EIVLTQSPATLSVSPGERATLSCRASQSISDYLHWYQQKPGQSPRLLIYYASQSISGIPARFSGSGSGTDFTLTISSVEPEDFAVYFCQNGHSLPLTFGGGTKLEIK
notes: humanized c14
Regarding B6, the EC50 in test [1] was 6.09 nM.

B7: hu14.H3L2 (antibody, V domains shown)
VH: EVQLVESGGGLVKPGGSLRLSCAASGFTFSKYWMNWVRQSPGKGLEWVAEIRLKSNKYGTHYAESVKGRFTISRDDSKNTVYLQMNSLKTEDTAVYYCTTQLDLYWFFDVWGQGTTVTVSS
VL: EIVLTQSPATLSLSPGERATLSCRASQSISDYLHWYQQKPGQSPRLLIYYASQSISGIPARFSGSGSGTDFTLTISSLEPEDFAVYFCQNGHSLPLTFGGGTKLEIK
notes: humanized c14
For B7, the binding result in test [4] was “binds”.

B8: hu14.H3L1 (antibody, V domains shown)
VH: EVQLVESGGGLVKPGGSLRLSCAASGFTFSKYWMNWVRQSPGKGLEWVAEIRLKSNKYGTHYAESVKGRFTISRDDSKNTVYLQMNSLKTEDTAVYYCTTQLDLYWFFDVWGQGTTVTVSS
VL: EIVLTQSPATLSLSPGERATLSCRASQSISDYLHWYQQKPGQAPRLLIYYASQSISGIPARFSGSGSGTDFTLTISSLEPEDFAVYYCQNGHSLPLTFGGGTKLEIK
notes: humanized c14
Take B8: the EC50 in test [1] came to 5.95 nM.

B9: hu14.H2L4 (antibody, V domains shown)
VH: EVQLVESGGGLVKPGGSLRLSCAASGFTFSKYWMNWVRQSPGKGLEWVGEIRLKSNKYGTHYAESVKGRFTISRDDSKNTLYLQMNSLKTEDTAVYYCTTQLDLYWFFDVWGQGTTVTVSS
VL: EIVMTQSPATLSVSPGERVTLSCRASQSISDYLHWYQQKPGQSPRLLIYYASQSISGIPARFSGSGSGTDFTLTISSVEPEDFAVYFCQNGHSLPLTFGGGTKLEIK
notes: humanized c14
As for B9, in test [4], the binding result is on record as “binds”.

B10: hu14.H4L2 (antibody, V domains shown)
VH: EVQLVESGGGLVKPGGSMRLSCAASGFTFSKYWMNWVRQSPGKGLEWVAEIRLKSNKYGTHYAESVKGRFTISRDDSKNTVYLQMNSLKTEDTAVYYCTTQLDLYWFFDVWGQGTTVTVSS
VL: EIVLTQSPATLSLSPGERATLSCRASQSISDYLHWYQQKPGQSPRLLIYYASQSISGIPARFSGSGSGTDFTLTISSLEPEDFAVYFCQNGHSLPLTFGGGTKLEIK
notes: humanized c14
Regarding B10, the binding result in test [4] is “binds”.

B11: hu14.H3L4 (antibody, V domains shown)
VH: EVQLVESGGGLVKPGGSLRLSCAASGFTFSKYWMNWVRQSPGKGLEWVAEIRLKSNKYGTHYAESVKGRFTISRDDSKNTVYLQMNSLKTEDTAVYYCTTQLDLYWFFDVWGQGTTVTVSS
VL: EIVMTQSPATLSVSPGERVTLSCRASQSISDYLHWYQQKPGQSPRLLIYYASQSISGIPARFSGSGSGTDFTLTISSVEPEDFAVYFCQNGHSLPLTFGGGTKLEIK
notes: humanized c14
For the molecule B11, a half-maximal effect in test [1] (EC50) was put at 6.05 nM.

B12: hu14.H4L4 (antibody, V domains shown)
VH: EVQLVESGGGLVKPGGSMRLSCAASGFTFSKYWMNWVRQSPGKGLEWVAEIRLKSNKYGTHYAESVKGRFTISRDDSKNTVYLQMNSLKTEDTAVYYCTTQLDLYWFFDVWGQGTTVTVSS
VL: EIVMTQSPATLSVSPGERVTLSCRASQSISDYLHWYQQKPGQSPRLLIYYASQSISGIPARFSGSGSGTDFTLTISSVEPEDFAVYFCQNGHSLPLTFGGGTKLEIK
notes: humanized c14
As for B12, in test [1], a half-maximal response (EC50) required 5.46 nM. The EC50 values of the last two molecules are within 1.5-fold of each other.

B13: c23 (antibody, V domains shown)
VH: EVQLQQSGAELLRPGASVKLSCTASGYNLKDTFLHWVKQRPEQGLEWIGRIDPANGNIKYDPKFQGKATLTADTSSNTAYLQLISLTSEDTAVYYCANSPYYYGSGYRIFDVWGAGTTVTVSS
VL: QIVLTQSPAIMSASPGEKVTITCSAFSSVNYMHWYQQKPGTSPKLLIYTTSNLASGVPTRFSGSGSGTSYSLTISRMEAEDAATYYCQQRSTYPFTFGSGTKLEIQ
notes: variable regions of mAb23 on human IgG constant regions; also called chimeric antibody c23
Consider B13, for which the EC50 was 1.28 nM in test [2]; 1.03 nM and 0.397 nM in test [5]. Moreover, the “ATPase inhibition IC50” value in test [3] was 0.158 nM and 0.209 nM.
